Laboratory results from the supplement of paper PMC10567573.

B1: TRIM15 (parent)
chain: LLARLRELEQQIWKERDEYITKVS
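Note: lentivirally expressed fusions sorted by FACS into six bins by GFP to DsRed ratio, PSI derived from sequencing read proportions per bin multiplied by bin number.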

Variants of: B1
Assay: protein stability index of a GFP-peptide fusion (GPS, HEK-293T) (PSI 1-6); higher = more stable
Conditions: c terminus: a fixed tail appended
LLARLRELEQQLWKERDEYITKVS [I12L] gave a protein stability index of 1.67. With LLARLRELEQQMWKERDEYITKVS [I12M] the protein stability index was 3.6. For LLARLRELEQQSWKERDEYITKVS [I12S], the protein stability index was 1.35. LLARLRELEQQQWKERDEYITKVS [I12Q] gave a protein stability index of 2.34. In the case of LLARLRELEQQWWKERDEYITKVS [I12W], the protein stability index is reported as 1.43. With LLARLRELEQQDWKERDEYITKVS [I12D] the protein stability index was 2.75. For LLARLRELEQQCWKERDEYITKVS [I12C], the protein stability index was 1.42. Variant LLARLRELEQQNWKERDEYITKVS [I12N] has a protein stability index of 1.24. LLARLRELEQQAWKERDEYITKVS [I12A] showed a protein stability index of 1.88. For LLARLRELEQQHWKERDEYITKVS [I12H], the protein stability index was 1.8. With LLARLRELEQQEWKERDEYITKVS [I12E] the protein stability index was 2.38. LLARLRELEQQPWKERDEYITKVS [I12P] showed a protein stability index of 1.77. In the case of LLARLRELEQQFWKERDEYITKVS [I12F], the protein stability index is reported as 2.15. Work on LLARLRELEQQYWKERDEYITKVS [I12Y] yielded a protein stability index of 2.13. Work on LLARLRELEQQRWKERDEYITKVS [I12R] yielded a protein stability index of 2.21. In the case of LLARLRELEQQVWKERDEYITKVS [I12V], the protein stability index is reported as 1.65. Variant LLARLRQLEQQIWKERDEYITKVS [E7Q] has a protein stability index of 1.61. In the case of LLARLRLLEQQIWKERDEYITKVS [E7L], the protein stability index is reported as 2.97. With LLARLRNLEQQIWKERDEYITKVS [E7N] the protein stability index was 1.84. LLARLRDLEQQIWKERDEYITKVS [E7D] showed a protein stability index of 1.6. Variant LLARLRYLEQQIWKERDEYITKVS [E7Y] has a protein stability index of 3.38. LLARLRILEQQIWKERDEYITKVS [E7I] showed a protein stability index of 1.03. Variant LLARLRPLEQQIWKERDEYITKVS [E7P] has a protein stability index of 2.57. In the case of LLARLRRLEQQIWKERDEYITKVS [E7R], the protein stability index is reported as 1.07. In the case of LLARLRCLEQQIWKERDEYITKVS [E7C], the protein stability index is reported as 2.53. In the case of LLARLRVLEQQIWKERDEYITKVS [E7V], the protein stability index is reported as 3.16. In the case of LLARLRTLEQQIWKERDEYITKVS [E7T], the protein stability index is reported as 3.56. In the case of LLDRLRELEQQIWKERDEYITKVS [A3D], the protein stability index is reported as 2.18. In the case of LLTRLRELEQQIWKERDEYITKVS [A3T], the protein stability index is reported as 2.2. With LLCRLRELEQQIWKERDEYITKVS [A3C] the protein stability index was 2.64. LLVRLRELEQQIWKERDEYITKVS [A3V] showed a protein stability index of 2.49. LLHRLRELEQQIWKERDEYITKVS [A3H] showed a protein stability index of 1.46. LLMRLRELEQQIWKERDEYITKVS [A3M] gave a protein stability index of 2.34. Work on LLSRLRELEQQIWKERDEYITKVS [A3S] yielded a protein stability index of 1.69. Variant LLLRLRELEQQIWKERDEYITKVS [A3L] has a protein stability index of 2. Variant LLQRLRELEQQIWKERDEYITKVS [A3Q] has a protein stability index of 1.9. Work on LLFRLRELEQQIWKERDEYITKVS [A3F] yielded a protein stability index of 2.9. In the case of LLERLRELEQQIWKERDEYITKVS [A3E], the protein stability index is reported as 3.27. LLPRLRELEQQIWKERDEYITKVS [A3P] showed a protein stability index of 1.99. In the case of LLGRLRELEQQIWKERDEYITKVS [A3G], the protein stability index is reported as 1.44. Variant LWARLRELEQQIWKERDEYITKVS [L2W] has a protein stability index of 2.23. Work on LPARLRELEQQIWKERDEYITKVS [L2P] yielded a protein stability index of 3.13. For LTARLRELEQQIWKERDEYITKVS [L2T], the protein stability index was 2.56. Work on LVARLRELEQQIWKERDEYITKVS [L2V] yielded a protein stability index of 1.74. With LNARLRELEQQIWKERDEYITKVS [L2N] the protein stability index was 2.18. Variant LQARLRELEQQIWKERDEYITKVS [L2Q] has a protein stability index of 1.22. In the case of LSARLRELEQQIWKERDEYITKVS [L2S], the protein stability index is reported as 2.34. In the case of LYARLRELEQQIWKERDEYITKVS [L2Y], the protein stability index is reported as 4.12. In the case of LLARLRELEQAIWKERDEYITKVS [Q11A], the protein stability index is reported as 1.98. LLARLRELEQGIWKERDEYITKVS [Q11G] gave a protein stability index of 1.41. For LLARLRELEQYIWKERDEYITKVS [Q11Y], the protein stability index was 1.88. Work on LLARLRELEQRIWKERDEYITKVS [Q11R] yielded a protein stability index of 2.29. LLARLRELEQEIWKERDEYITKVS [Q11E] gave a protein stability index of 1.01. Work on LLARLRELEQVIWKERDEYITKVS [Q11V] yielded a protein stability index of 2.12. In the case of LLARLRELEQHIWKERDEYITKVS [Q11H], the protein stability index is reported as 1.98. In the case of LLARLRELEQPIWKERDEYITKVS [Q11P], the protein stability index is reported as 1.62. LLARLRELEQNIWKERDEYITKVS [Q11N] showed a protein stability index of 1.68. In the case of LLARLRELEQSIWKERDEYITKVS [Q11S], the protein stability index is reported as 2.51. Variant LLARLRELEQMIWKERDEYITKVS [Q11M] has a protein stability index of 1.08. Work on LLARLRELEQDIWKERDEYITKVS [Q11D] yielded a protein stability index of 2.36. With LLARLRELEQWIWKERDEYITKVS [Q11W] the protein stability index was 1.08. LLAWLRELEQQIWKERDEYITKVS [R4W] gave a protein stability index of 2.67. Work on LLAGLRELEQQIWKERDEYITKVS [R4G] yielded a protein stability index of 2.56. LLAQLRELEQQIWKERDEYITKVS [R4Q] showed a protein stability index of 1.74. Variant LLAMLRELEQQIWKERDEYITKVS [R4M] has a protein stability index of 2.36. Work on LLAFLRELEQQIWKERDEYITKVS [R4F] yielded a protein stability index of 1.73. In the case of LLAPLRELEQQIWKERDEYITKVS [R4P], the protein stability index is reported as 1.6. In the case of LLANLRELEQQIWKERDEYITKVS [R4N], the protein stability index is reported as 1.58. For LLAYLRELEQQIWKERDEYITKVS [R4Y], the protein stability index was 1.92. In the case of LLASLRELEQQIWKERDEYITKVS [R4S], the protein stability index is reported as 1.78. In the case of LLARLRELEQQIWAERDEYITKVS [K14A], the protein stability index is reported as 1.24. For LLARLRELEQQIWEERDEYITKVS [K14E], the protein stability index was 1.05. For LLARLRELEQQIWTERDEYITKVS [K14T], the protein stability index was 2.85. Work on LLARLRELEQQIWHERDEYITKVS [K14H] yielded a protein stability index of 1.67. With LLARLRELEQQIWNERDEYITKVS [K14N] the protein stability index was 1. Work on LLARLRELEQQIWLERDEYITKVS [K14L] yielded a protein stability index of 2.06. For LLARLRELEQQIWFERDEYITKVS [K14F], the protein stability index was 1.68. LLARLRELEQQIWPERDEYITKVS [K14P] showed a protein stability index of 2.2. Work on LLARLRELEQQIWIERDEYITKVS [K14I] yielded a protein stability index of 2.26. With LLARLRELNQQIWKERDEYITKVS [E9N] the protein stability index was 1.94. Variant LLARLRELCQQIWKERDEYITKVS [E9C] has a protein stability index of 2.11. Variant LLARLRELHQQIWKERDEYITKVS [E9H] has a protein stability index of 1.45. In the case of LLARLRELRQQIWKERDEYITKVS [E9R], the protein stability index is reported as 2.22. LLARLRELTQQIWKERDEYITKVS [E9T] showed a protein stability index of 3.38. Variant LLARLRELPQQIWKERDEYITKVS [E9P] has a protein stability index of 2.29. With LLARLRELKQQIWKERDEYITKVS [E9K] the protein stability index was 1.62. Work on LLARLRELWQQIWKERDEYITKVS [E9W] yielded a protein stability index of 1.69. LLARLRELFQQIWKERDEYITKVS [E9F] gave a protein stability index of 3.06. Work on LLARLRELIQQIWKERDEYITKVS [E9I] yielded a protein stability index of 1.96. In the case of LLARLRELQQQIWKERDEYITKVS [E9Q], the protein stability index is reported as 1.07. Variant LLARLRELYQQIWKERDEYITKVS [E9Y] has a protein stability index of 1.59. In the case of LLARLRELDQQIWKERDEYITKVS [E9D], the protein stability index is reported as 3.17. Work on LLARLRELLQQIWKERDEYITKVS [E9L] yielded a protein stability index of 1.8. With LLARLRELEQQIWKQRDEYITKVS [E15Q] the protein stability index was 1.47.
